We go through three molecules from patent publication US20220119488A1, “BICYCLIC PEPTIDE LIGANDS SPECIFIC FOR INTEGRIN ALPHA-V-BETA-3” (priority 2019, published 2022).

Numbered stars: 1 amine (or outer) side, 2 acyl side, 3 side chain; on linkers, the order of the positions; unused ones are H or OH. Bridge positions count the residues as written; N and C are the ends. Square brackets hold non-standard residues; d marks the D form. Ends that are not written are not given here. TBMB = c1c(C[*:1])cc(C[*:3])cc1C[*:2]; Fl = fluorescein; Sar = CNCC(=O)O

For assay [1], the target named is T1, human integrin αvβ3 (human, UniProt P06756 31-992; P05106 27-718, limits assumed). The assay can be described thus: human FP direct binding; column 'Mean', n=2.
Assay [2] concerns the target T1, human integrin αvβ3. The assay can be described thus: human FP direct binding; n=2.
Assay [3] deals with T1, human integrin αvβ3. The assay is described as follows: human FP direct binding; column 'Mean', n=9.

T1 sequence (P06756 31-992 limits assumed, chain 1 of 2): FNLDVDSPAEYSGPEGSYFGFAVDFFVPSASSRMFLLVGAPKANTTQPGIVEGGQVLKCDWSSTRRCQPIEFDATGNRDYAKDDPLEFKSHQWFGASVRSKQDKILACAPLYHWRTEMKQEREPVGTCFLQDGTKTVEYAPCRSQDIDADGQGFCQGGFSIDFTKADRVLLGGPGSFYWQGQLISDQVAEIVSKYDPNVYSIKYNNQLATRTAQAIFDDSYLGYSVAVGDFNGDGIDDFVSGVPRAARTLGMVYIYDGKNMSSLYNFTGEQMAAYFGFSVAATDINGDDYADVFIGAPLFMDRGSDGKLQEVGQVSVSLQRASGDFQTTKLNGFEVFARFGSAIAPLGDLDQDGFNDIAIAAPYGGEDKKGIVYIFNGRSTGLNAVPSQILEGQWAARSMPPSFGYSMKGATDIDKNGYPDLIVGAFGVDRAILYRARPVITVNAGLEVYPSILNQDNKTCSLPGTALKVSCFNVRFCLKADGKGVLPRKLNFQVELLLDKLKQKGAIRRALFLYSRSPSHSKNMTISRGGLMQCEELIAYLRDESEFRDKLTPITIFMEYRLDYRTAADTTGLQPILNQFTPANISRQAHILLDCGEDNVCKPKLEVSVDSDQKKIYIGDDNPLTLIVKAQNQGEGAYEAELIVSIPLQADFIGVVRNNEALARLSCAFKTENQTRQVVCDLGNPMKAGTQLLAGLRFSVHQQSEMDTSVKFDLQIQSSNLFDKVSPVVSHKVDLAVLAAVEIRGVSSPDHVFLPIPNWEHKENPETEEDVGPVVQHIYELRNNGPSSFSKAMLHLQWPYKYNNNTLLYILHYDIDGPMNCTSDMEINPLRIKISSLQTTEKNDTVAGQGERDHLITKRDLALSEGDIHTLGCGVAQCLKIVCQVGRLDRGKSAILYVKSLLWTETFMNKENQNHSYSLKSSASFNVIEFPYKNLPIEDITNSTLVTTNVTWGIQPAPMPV
T1 sequence (P05106 27-718 limits assumed, chain 2 of 2): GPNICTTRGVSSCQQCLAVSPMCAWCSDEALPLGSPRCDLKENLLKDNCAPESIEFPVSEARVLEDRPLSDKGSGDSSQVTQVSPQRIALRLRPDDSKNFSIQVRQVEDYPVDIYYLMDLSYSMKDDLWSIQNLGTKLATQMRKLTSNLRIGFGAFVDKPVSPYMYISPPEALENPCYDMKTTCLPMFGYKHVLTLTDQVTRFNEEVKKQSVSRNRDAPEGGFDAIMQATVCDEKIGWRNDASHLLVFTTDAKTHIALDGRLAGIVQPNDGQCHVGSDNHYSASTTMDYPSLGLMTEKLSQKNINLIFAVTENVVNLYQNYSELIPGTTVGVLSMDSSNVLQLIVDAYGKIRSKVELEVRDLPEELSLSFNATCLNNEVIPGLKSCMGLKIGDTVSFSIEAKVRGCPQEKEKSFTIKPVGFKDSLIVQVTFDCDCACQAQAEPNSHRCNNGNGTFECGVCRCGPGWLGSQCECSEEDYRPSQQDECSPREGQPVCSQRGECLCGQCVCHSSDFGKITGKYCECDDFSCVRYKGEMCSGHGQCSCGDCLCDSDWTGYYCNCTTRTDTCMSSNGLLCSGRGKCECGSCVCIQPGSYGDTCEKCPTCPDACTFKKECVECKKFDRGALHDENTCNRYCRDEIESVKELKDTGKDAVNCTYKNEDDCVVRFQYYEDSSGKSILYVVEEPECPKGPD

B1: BCY2577 (peptide)
peptide: Ac-CILRPNCDLDGRCA[Sar][Sar][Sar][Sar][Sar][Sar]K
modifications: linker 1-7-13 via TBMB; not fully specified (residue 21); also: Fl on the C-terminal K
notes: Fluorescent bicyclic peptide
As for B1, the Kd in assay [1] and in assay [2] was 2 nM in each case.

B2: BCY2573 (peptide)
peptide: Fl-G[Sar][Sar][Sar][Sar][Sar]ACLDHMECRGDMDC
modifications: linker 8-14-20 via TBMB
notes: Fluorescent bicyclic peptide
Regarding B2, the Kd in assay [1] and in assay [2] was 1 nM each time.

B3: BCY2572 (peptide)
peptide: ACLDHMECRGDMDCAXXXXXXK
modifications: Sar6 (six sarcosines); fluorescein (Fl) on the C-terminal K; Ci, Cii and Ciii bound to the TBMB scaffold
notes: Fluorescent bicyclic peptide
In the case of B3, binding in assay [3] was characterised by a dissociation constant (Kd) of 9 nM.
